Experimental data published in the RNAGym collection of RNA variant scans (doi:10.1073/pnas.2313332121).

B1: TPR t1 (parent)
chain: GACCAAUCUGCCCUCAGAGCUCGAGAACAUCUUCGGAUGCAGAGGAGGCAGGCUUCGGUGGCGCGAUAGCGCCAACGUCCUCAACCUCCAAUGCAUCCCACCACAUGAUGAUGCCUGAAGAGCCUUGGUUUUUUG

Variants of: B1
Test: polymerase ribozyme fitness, log enrichment relative to wild type (log ratio); higher = more active; in vitro selection for triplet polymerase activity
How it was run: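 Fitness is a logarithmic measure of how a genotype enriched relative to the wild type, with replicate averages weighted by inverse variance. The logarithm uses base 2, and enrichment came from Illumina sequencing of input and output libraries. Those libraries were PCR-built, transcribed mutants of each subunit of a heterodimeric triplet polymerase ribozyme, passed through one triplicate in vitro selection round that included frozen incubation at −7 °C, gel excision of extended constructs and streptavidin-bead capture. Genotypes were kept only if they had ≥10 input reads and ≥1 read per output.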

Variant | polymerase ribozyme fitness (log ratio)
G58C U59G C70A C86G | -2.75
U59A C79U G110A A119C | -3.05
U59C A91U | -2.41
U59A G60A C80U A95C G120U | -2.35
G58C C97U U116G G135C | -3.26
G58C U112C A121G | 1.44
U59C C79A G122A C123A U132A | -2.39
G58A C89G | -2.2
G57U G117A G135U | -2.73
G58A G60A A68G A100U C115A | -5.02
G58A C70G G120A U129A | -3.9
G58C U81A C123A | -0.0338
U59A G71A A91G A100U G113A | -4.54
G57U U92A G120A A121C | -2.28
U59A C80U | -0.689
U59A A95G U125G | -0.633
U59A C62U | 0.252
G58A A91C C101A C123G | -1.04
G58A G61U | -0.422
U59A A91G A100U G113A | -3.07
G58C A95G U109A | -5.73

Variant | polymerase ribozyme fitness (log ratio)
U59A C104A G110U C115A | -4.57
U59A U81A G107A C114U | -2.96
U59C C86U G127C | -2.09
U59C G61C | -3.23
G58U C64U U78C U96C C124U U126C U133G | -0.65
G58C C72U C123G G128A | 0.86
G57U G113U | -1.79
G58C C70A G77C G117A | -7.23
U59A C72U A83C | -0.884
G57U G60A C80U G122U | -2.06
U59A U126C | -1.31
G57U G69A | -2.73
G57U G69C | -0.847
G57U G120C | 0.593
G57U G117U | -2.86
G58C A66G | -0.999
G58C G71U C101G U112C U129G | -0.74
U59C C123U | 1.16
U59A A121C | 2.1
G58A C62U C88U | -0.946
G58C C62A G69U A119U | -0.99

Variant | polymerase ribozyme fitness (log ratio)
U59A C62U C82U G120A | 0.193
U59C C80A U81A | -2.03
G57U C88G | -1.99
G58A C72G C82A G110C G113A | -6.33
U59A C89U U106A | -0.429
U59A C62G U87A U129C U130G | -4.15
G57U C99A C124A | -4.71
U59A G60U C89G C97U | -2.98
G57U G60C U96G | -2.78
U59A U125A | -0.568
U59A U125G | -0.415
U59C A111C G128C | -3.24
U59A U116G G120C | -0.387
G58C C123G G128A | 0.535
U59A G77A C79U U87C C114U | -3.41
U59C C88U | -0.959
G58A A83C | -0.717
U59A U129G | -1.18
U59C C94A | -1.01
G58C A68G C86A C115U | -6.11
G58A C70U C79G A100C | -6.76

Variant | polymerase ribozyme fitness (log ratio)
G58A C72U | 0.786
G58C C123G | 1.75
G58A C73U | -0.192
U59C C62U C85A C115U | -2.93
U59A C82U A111G | -0.386
G58U U59A A74U C88A | -0.539
G57U U112A | 1.54
G58A G60A C99U U130A | -5.34
G57U C89U | -0.78
G58C C98A | -5.61
U59A A111C G120A | -0.645
U59A C89U | -0.0389
G58C U109A C114U | -5.23
G58C C85U G120A | 0.436
G58C C97A A103U G120C | -6.84
G58A C64U A66U U130A | -2.13
U59C C72U | -0.715
G58U C86U G110U G122A | -3.85
G58U C99U G117C U131C | -5.92
U59A C70U U112A | 0.172
G58A U125A | -0.652
